# Assay results taken from patent US20240327477A1, “COMPOSITIONS AND METHODS FOR THE TREATMENT OF TDP-43 PROTEINOPATHIES” (SOLA BIOSCIENCES LLC, priority 2020, published 2024).
# Entries after “also recorded” stand apart in the source; their conditions may differ. Where a SMILES comes first, the peptide text is derived from it. The star is where a group is joined. Cbz = O=C(OCc1ccccc1)*
# How the values were obtained:
# [1] = system: GFP-TDP43CTF; assay: Bafilomycin A1 or MG132 treatment of cells co-expressing reporter and Construct 3, immunoblot; type: cell-based, human; settings: immunoblot (FIG. 10)
# From the text: Cells were transfected either with the reporter construct GFP-TDP43FL (lane 2) or GFP-TDP43CTF (lanes 3-8), and co-transfected with nucleic acids encoding Construct 3 (lanes 4-8).
# We next investigated the mechanism of the fusion protein in reducing aggregation. HEK293 cells were transfected with the GFP-TDP43FL or GFP-TDP43CTF reporter construct, either alone or with Construct 3 (JB1-scFv (3B12A)), as well as with BFA (Bafilomycin A1, an inhibitor of the late phase of autophagy) or MG132 (proteasome inhibitor).
# [2] = target: T1, GFP-TDP43CTF (Homo sapiens, UniProt Q13148); assay: Fluorescence microscopy of GFP-TDP43CTF aggregation (GFP foci) in transfected HEK293 cells; type: cell-based; settings: for reduction of TDP-43 aggregation: GFP-TDP43CTF reporter, vs reporter alone (FIG. 8/9, Table 12); for aggregation of GFP-TDP43CTF reporter in cells (in words): HEK293 cells, vs reporter alone
# T1 construct: expressed in transfected cells; host or cells: HEK293
# Description: (§1) Expression vector plasmids encoding various protein constructs were transfected into HEK293 cells with Lipofectamine 3000 transfection reagent (Thermo Fisher Scientific). Cell lysates were analyzed for expressed proteins using immunoblot assays. Samples of culture media were centrifuged to remove debris prior to analysis. Cells were lysed in a lysis buffer (10 mM Tris-HCl, pH 8.0, 150 mM NaCl, 10 mM EDTA, 2% SDS) containing 2 mM PMSF and protease cocktail (Complete Protease Inhibitor Cocktail; Sigma). After brief sonication, the samples were analyzed for expressed proteins using immunoblot assays. For immunoblot analysis, samples were boiled in an SDS-sample buffer and run on polyacrylamide electrophoresis. Thereafter, the separated protein bands were transferred to a PVDF membrane.
# In some instances, aggregation of TDP-43 (full-length of C-terminal fragment) GFP reporter constructs (described below) were detected in vivo using fluorescence microscopy. Cultured cells expressing the reporter constructs as well as the fusion protein comprising the J domain and TDP-43-binding domain were washed with PBS and fixed with 4% paraformaldehyde in PBS for 5 minutes. After three 5-min washes with PBS, nuclear DNA was stained with DAPI. Percentage of cells containing TDP-43 (GFP foci) in transfected cells was counted.
# We first investigated whether the fusion molecule of the present invention targeting TDP-43 ameliorates its aggregation in cultured cells. To this end, we generated GFP-based reporter constructs GFP-TDP43 and GFP-TDP43, wherein GFP was fused at its C-terminus to either the full-length human TDP-43 protein or the C-terminal fragment TDP-43 which is known to form cytoplasmic aggregation and cytotoxicity (See Table 8 below). HEK293 cells were cultured and transfected with the plasmids encoding the full-length TDP43 or the C-terminal fragment of TDP43, containing the C-terminal 207 amino acids TDP-43 (amino acids 208-414 of human TDP-43) as a GFP fusion [GFP-TDP43FL (SEQ ID NO: 101) or GFP-TDP43CTF (SEQ ID NO: 102)].
# [3] = target: T2, GFP-TDP43FL (Homo sapiens, UniProt Q13148); assay: Fluorescence microscopy of GFP-TDP43FL aggregation (GFP foci) in transfected HEK293 cells; type: cell-based; settings: vs negative controls and construct 2 (FIG. 7)
# T2 construct: expressed in transfected cells; host or cells: HEK293
# Description: as §1
# In some instances, aggregation of TDP-43 (full-length of C-terminal fragment) GFP reporter constructs (described below) were detected in vivo using fluorescence microscopy. Cultured cells expressing the reporter constructs as well as the fusion protein comprising the J domain and TDP-43-binding domain were washed with PBS and fixed with 4% paraformaldehyde in PBS for 5 minutes. After three 5-min washes with PBS, nuclear DNA was stained with DAPI. Percentage of cells containing TDP-43 (GFP foci) in transfected cells was counted. […]
# [4] = target: T1, GFP-TDP43CTF; assay: Immunoblot (anti-GFP) of reporter level in cell extracts; type: cell-based; settings: vs negative control
# Description: as §1
# (§2) Expressed proteins were detected using a chemiluminescent signal. Briefly, blots were reacted with a primary antibody capable of binding the particular epitope (e.g., GFP). After rinsing away the unreacted primary antibody, a secondary, enzyme-linked antibody (e.g., HRP-linked anti-lgG antibody) was allowed to react with the primary antibody molecules bound to the blots. Following rinsing, a chemiluminescent reagent was added, and the resultant chemiluminescent signals in the blots were captured on X-ray film.
# [5] = target: T2, GFP-TDP43FL; assay: as above; type: cell-based; settings: cell extracts (FIG. 5)
# Description: as §1, §2
# [6] = type: in vivo, mouse; settings: C57BL/6J mice, AAV rh10 vector encoding Construct 3 vs control, three weeks after ICV or IT injection; data not shown
# [7] = target: T3, human TDP-43ΔNLS (Homo sapiens, UniProt Q13148, K82A/K84A/R83A); assay: Efficacy in rNLS8 (NEFH-tTA x hTDP-43ΔNLS) mouse model of ALS, ICV AAV rh10; type: in vivo; settings: rNLS8 mice (Dox −)
# T3 construct: expressed in transfected cells; host or cells: transgene in NEFH-tTA x hTDP-43ΔNLS bigenic mice (rNLS mice), in vivo
# Description: Vectors prepared above were tested on TDP-43-asociated pathologies of a novel AAV NEFH-tTA×hTDP-43ΔNLS bigenic mice (rNLS mice). This model has a doxycycline (DOX)-repressible construct expressing pathogenic TDP-43 (human TDP-43ΔNLS). Upon removal of DOX, TDP-43ΔNLS expression causes a rapid and progressive deterioration of the animals, causing severe weight loss and, generally within 6-8 weeks, death. We tested the efficacy of Construct 3 (JB1-scFv (3B12A), SEQ ID NO: 80) in slowing the progression of TDP-43ΔNLS-mediated pathology. AAV rh10 containing control or Construct 3 were administered ICV unilaterally at P1/P2 at a volume of 2 ul (maximum 4 ul) in different groups as shown below in Table 17. Except for the control group 1, DOX removal occurred at week 5. Control mice in group
# Body weight was measured twice weekly after weaning. After completion of testing, samples were collected from all surviving mice. Whole brains were collected and split into 2 hemispheres. One hemisphere were weighed and frozen on dry ice. The second hemisphere were post fixed in 4% PFA for histology assessments.
# [8] = target: T1, GFP-TDP43CTF; assay: Fractionation assay: soluble and insoluble fractions, immunoblot; type: cell-based; settings: GFP-TDP43CTF reporter, HEK293 cells
# Description: Transfected HEK293 cells are homogenized in RIPA buffer (50 mM Tris, pH7.5, 150 mM NaCl, 0.1% NP-40, 0.5% sodium deoxycholate, 0.1% SDS) supplemented with protease inhibitor cocktail, 2 mM PMSF, 10 mM NaF, and 2 mM Na3VO4. After brief sonication, protein concentration is measured by BCA assay kit (Pierce). The equal protein amount is spun down by centrifugation at 16,000×g for 30 minutes at 4° C. to fractionate into soluble fraction (supernatant) and insoluble fraction (pellet). The insoluble fraction is further solubilized in SDS lysis buffer (10 mM Tris, pH8.0, 150 mM NaCl, 2% SDS). Both soluble and insoluble fractions were applied to SDS-PAGE under reducing condition, followed by immunoblotting assay with anti-GFP antibody.
molecule,measurement,setting,value
"CO/C1=C\C(C)=C\[C@@H](C)[C@@H](O)[C@@H](C)C/C(C)=C/C=C/[C@H](OC)[C@@H]([C@@H](C)[C@@H](O)[C@H](C)[C@@]2(O)C[C@@H](O)[C@H](C)[C@@H](C(C)C)O2)OC1=O [BFA, Bafilomycin A1]",level of GFP-TDP43CTF reporter in cells co-expressing Construct 3 after BFA treatment,[1]; BFA 0.01 μM (10 nM) or 0.1 μM (100 nM),higher levels; also recorded: reappearance of pathogenic TDP43 in a dose dependent manner
CC(C)C[C@@H](C=O)NC(=O)[C@H](CC(C)C)NC(=O)[C@H](CC(C)C)NC(=O)OCc1ccccc1 [MG132] (Cbz-Leu-Leu-Leu-aldehyde),level of GFP-TDP43CTF reporter in cells co-expressing Construct 3 after MG132 treatment,[1]; MG132 0.1 μM or 1.0 μM,little to no effect
Construct 3: DnaJB1 J domain fused to scFv(3B12A),reduction of TDP-43 aggregation,[2],> 90%
same,aggregation of GFP-TDP43CTF reporter in cells (in words),[2],substantially reduced aggregation
same,aggregation of GFP-TDP43CTF reporter in cells (in words),[2]; listed as construct 3,dramatically reduced
same,aggregation level in cells expressing GFP-TDP43FL reporter (in words),[3],modest reduction
same,"amount of GFP-TDP43CTF reporter protein, anti-GFP immunoblot (in words)",[4],lower levels
same,"amount of GFP-TDP43CTF reporter protein, anti-GFP immunoblot (in words)",[4]; listed as construct 3,marked reduction
same,"levels of the full-length reporter construct (GFP-TDP43FL), anti-GFP immunoblot (in words)",[5],No differences
same,body weight,[6],No difference in body weight
same,survival at week 10,"[7]; AAV rh10 6 × 10^10 vg ICV at P1, DOX removal at week 5 (FIG. 16C)",100%
same,"body weight compared with Group 2 (AAV control, DOX off)","[7]; males, AAV rh10 6 × 10^10 vg ICV at P1, DOX removal at week 5 (FIG. 16B)",statistically significant weight increase
"Construct 4: Same as construct 3, with a P33Q mutation in the conserved HPD motif",aggregation of GFP-TDP43CTF reporter in cells (in words),[2],did not reduce aggregation
same,"levels of the full-length reporter construct (GFP-TDP43FL), anti-GFP immunoblot (in words)",[5],No differences
Construct 5: Reversed arrangement of J domain and TDP-43 from Construct 3,aggregation of GFP-TDP43CTF reporter in cells (in words),[2],dramatically reduced
same,aggregation level in cells expressing GFP-TDP43FL reporter (in words),[3],modest reduction
Construct 9: Full-length J protein control [reference compound],reduction of TDP-43 aggregation,[2],~43%
same,"amount of GFP-TDP43CTF reporter protein, anti-GFP immunoblot (in words)",[4],lower levels
Construct 14: J domain from DnaJB1 fused to two tandem copies of QBP1,reduction of TDP-43 aggregation,[2],~71%
same,"amount of GFP-TDP43CTF reporter protein, anti-GFP immunoblot (in words)",[4],lower levels
Construct 20: Construct 3 containing the dimerization domain from human DnaJA1,"ability to reduce aggregation of GFP-TDP43CTF (in words, with Table 15)",[8],potent reduction
